{"source": "paper PMC8837534", "about": "“CD147 supports paclitaxel resistance via interacting with RanBP1” (Oncogene, 2022)", "binders": {"B1": {"name": "His6-tagged CD147^ICD (intracellular domain of CD147, residues 231-269) (domain or fragment, UniProt P35613-2 231-269, looked up)", "chain": "KRRKPEDVLDDDDAGSAPLKSSGQHQNDKGKNVRQRNSS", "notes": "CD147 (basigin), intracellular domain, residues 231-269; One preparation is described (pET21a, 'SUMO-His tag at the C-terminus', SUMO removed by Ulp1); The pull-down names the bait as His6-tagged; source: E. coli BL21 (DE3), purified (HisTrap HP, Ulp1 digestion, Superdex 75); not shown: SUMO, C-terminal, cleaved; His6, C-terminal, kept"}}, "molecular_target": "T1, RanBP1 protein (full-length, recombinant) (UniProt P43487 1-201)", "T1 construct": "pMAL-c5x vector; that this removed MBP is inferred; source: E. coli BL21 (DE3), purified (MBPTrap HP, thrombin digestion, Superdex 75); not shown: MBP, N-terminal, cleaved", "T1 sequence (P43487 whole entry)": "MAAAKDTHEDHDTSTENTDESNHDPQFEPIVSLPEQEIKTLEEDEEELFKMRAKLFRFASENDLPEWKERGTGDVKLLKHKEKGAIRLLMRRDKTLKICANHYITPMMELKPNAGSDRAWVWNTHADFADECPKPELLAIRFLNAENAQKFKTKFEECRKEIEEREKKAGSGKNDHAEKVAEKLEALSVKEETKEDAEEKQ", "experiment": "SPR; ProteOn XPR36, One-shot Kinetics; concentration series of CD147^ICD injected over the immobilized ligand in TBS-T, 50 μL/min for 3 min, dissociation 12 min; constants by ProteOn Manager Software", "settings": "both partners purified"}
{"binder": "B1", "values": [{"measurement": "Kd", "result": 2250, "unit": "nM"}]}
